Test results published in the supplement of paper PMC9732359.
± gives the uncertainty stated by the source.

Test: protein stability index of a GFP-peptide fusion (yeast GPS) (PSI 1-4); higher = more stable; sorted into four equal gates, so the index is relative within each strain
Method in brief: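 Plasmids isolated from each sorting gate were PCR-amplified and Illumina-sequenced, and barcodes assigned the reads to strains. The gates, four of equal size, were set by GFP/Cherry fluorescence ratio on mid-log cultures in leucine-free medium. These cultures were yeast carrying a pooled library of tiled 17-residue yeast protein peptides fused downstream of GFP on a plasmid that also expresses Cherry. The protein stability index is the sum of every gate's read frequency times its gate number.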

Sequence	protein stability index (doa10∆)	protein stability index (pdr5∆)	protein stability index (san1∆)	protein stability index (ubr1∆)
ERPAIEFETPTFLVSND [RPN14]	3 ± 0.063	3.14 ± 0.056	2.81 ± 0.06	2.9 ± 0.089
QSYGGRPYGVGLLIIGY [PRE5]	2.96 ± 0.078	3.01 ± 0.067	2.83 ± 0.07	2.56 ± 0.071
SNNTGNTAFGNSNPTSN [YJL041W/NSP1]	3.01 ± 0.15	3.19 ± 0.13	2.66 ± 0.15	–
MSSQIIDRPKHELSRAE [SMD2]	3.14 ± 0.093	3.46 ± 0.12	3.2 ± 0.11	3.25 ± 0.11
LLTVTPGPRLLYENIAS [RPN10]	1.86 ± 0.036	1.92 ± 0.054	1.95 ± 0.086	1.82 ± 0.035
ILKSLKNRSNRKRFHSQ [YOR098C/NUP1]	3.08 ± 0.061	3.22 ± 0.066	3.03 ± 0.081	3.11 ± 0.042
RTHFKRMRFPPFDDDEP [PRP8]	2.65 ± 0.042	3.03 ± 0.047	2.91 ± 0.044	2.77 ± 0.035
EDFEHNNLSSMNLDFDI [MCD1]	2.76 ± 0.053	3.24 ± 0.061	3.24 ± 0.04	3.24 ± 0.033
HGKASRQQYYSGVQVGG [SNF6]	2.43 ± 0.061	2.8 ± 0.063	2.61 ± 0.052	2.21 ± 0.05
FRGIIRSQDVRSTDRDR [CSL4]	–	–	–	2.9 ± 0.2
YTKKHLSSHSSTNSNSK [RPN4]	3.37 ± 0.14	3.11 ± 0.076	2.95 ± 0.055	2.95 ± 0.061
IDRNLKCQTCQEGMNEC [RPO21]	2.48 ± 0.086	1.38 ± 0.061	2.56 ± 0.079	2.37 ± 0.079
KNEEAEIEVDEMEVDAE [RPN1]	3.4 ± 0.14	3.51 ± 0.11	3.19 ± 0.12	3.62 ± 0.1
PRSDAQAIKEASYVNIP [RPS0A]	2.88 ± 0.058	2.76 ± 0.048	2.71 ± 0.058	2.47 ± 0.034
NQILQTEIENYLLENNQ [YDL116W/NUP84]	1.88 ± 0.052	2.24 ± 0.038	2.19 ± 0.066	2.13 ± 0.043
LKESVEGEFNGDTIELA [PRE8]	3.12 ± 0.092	3.48 ± 0.11	3.4 ± 0.072	3.2 ± 0.073
GSARTRWEMEAFGEFSL [FAS2]	1.78 ± 0.072	2.92 ± 0.13	2.93 ± 0.098	2.24 ± 0.098
LRKSELEYYAMLSKTKV [RPL30]	2.62 ± 0.075	3.01 ± 0.078	2.17 ± 0.07	2.82 ± 0.068
YTVNVVDVFAMPQSGTG [RPN11]	3.08 ± 0.088	3.28 ± 0.1	3.3 ± 0.063	3.07 ± 0.077
VYLTAVLEYLAAEILEL [HTA1]	2.47 ± 0.12	2.43 ± 0.1	2.21 ± 0.09	2.61 ± 0.075
HLDSFNYFVDTDLKKII [RET1]	2.69 ± 0.094	2.85 ± 0.08	2.67 ± 0.1	2.64 ± 0.038
IELSDGSTFKVNQEFIF [YJL039C/NUP192]	3.23 ± 0.088	3.07 ± 0.059	2.78 ± 0.061	3.13 ± 0.064
QDSIFQRIIADLSADKP [SRB8]	2.63 ± 0.046	2.56 ± 0.057	2.59 ± 0.048	2.52 ± 0.032
SVKLDLQDDEDHKFPIR [BRN1]	2.99 ± 0.18	2.88 ± 0.098	2.76 ± 0.14	2.22 ± 0.17
KLVLAARIIAAIPNPED [RPS0A]	1.71 ± 0.074	2.11 ± 0.11	2.31 ± 0.099	2.5 ± 0.14
TFTIKEFVSYYYAHSIP [SNU114]	1.88 ± 0.039	1.77 ± 0.045	2.25 ± 0.055	1.88 ± 0.052
LKTLVQGPRSYFLDVKC [RPS27A]	3.08 ± 0.076	3.21 ± 0.13	2.72 ± 0.12	2.99 ± 0.075

Sequence	protein stability index (doa10∆)	protein stability index (pdr5∆)	protein stability index (san1∆)	protein stability index (ubr1∆)
SRKRAKKMTKKAKRSNL [PRP8]	2.94 ± 0.07	2.16 ± 0.069	2.11 ± 0.094	2.52 ± 0.082
RSQDVRSTDRDRVKVIE [CSL4]	3.01 ± 0.16	–	3.27 ± 0.12	2.97 ± 0.079
IDAMKAVAEAYNNRSLL [RPN6]	1.7 ± 0.061	2.07 ± 0.068	2.28 ± 0.095	1.79 ± 0.067
QLAVKIINKVLDYQETY [YJL039C/NUP192]	1.94 ± 0.11	2.73 ± 0.096	2.51 ± 0.086	–
VRQLYKGKKYQPKDLRA [RPL35A]	3.28 ± 0.21	3.17 ± 0.12	2.59 ± 0.098	2.92 ± 0.12
FKYRKARLEPGTAIGAI [RPO31]	2.73 ± 0.16	1.99 ± 0.092	2.17 ± 0.1	2.33 ± 0.057
LFHFEEDEGEELTDEYL [PRP8]	3.52 ± 0.14	3.01 ± 0.09	3.44 ± 0.06	3 ± 0.12
MFGIRSGNNNGGFTNLT [YDL088C/ASM4]	3.23 ± 0.085	3.41 ± 0.059	3.19 ± 0.054	3.4 ± 0.044
EGLDLLKLCVQELEKRM [PRE1]	2.04 ± 0.095	2.32 ± 0.076	2.19 ± 0.16	2.06 ± 0.059
LKYLSVEEVIKLVRDSF [PRE7]	2.71 ± 0.13	3.27 ± 0.11	2.72 ± 0.12	3.08 ± 0.078
KKAEKAARKAEKAKSAG [RPL24A]	3.34 ± 0.066	3.32 ± 0.053	3.53 ± 0.046	3.48 ± 0.055
LKSAIRDEIAKNTELSY [RPN12]	1.41 ± 0.058	2.16 ± 0.1	1.51 ± 0.097	2.46 ± 0.056
EYAALASLADVMSIESL [FAS1]	3.07 ± 0.069	3.11 ± 0.068	3.14 ± 0.069	3.07 ± 0.053
LSIRLTNQLKSLKGLQS [RPN8]	1.48 ± 0.17	1.49 ± 0.16	2.62 ± 0.19	1.24 ± 0.079
PQKYVLHPQLHEVQYQE [SIN4]	1.49 ± 0.13	1.88 ± 0.082	2.15 ± 0.14	1.6 ± 0.064
KKRFDEFMAGFNIISMT [SMC4]	2.64 ± 0.097	2.52 ± 0.11	2.87 ± 0.096	2.14 ± 0.072
DDDISDDEEDEIEENCL [RPN4]	3.48 ± 0.1	3.27 ± 0.089	3.14 ± 0.08	3.32 ± 0.1
VVKGRVEKTLLSDVAFY [RPO31]	2.16 ± 0.22	3.14 ± 0.23	–	2.52 ± 0.15
ELTDEYLAENPDPNFEN [PRP8]	3.45 ± 0.077	3.16 ± 0.076	3.36 ± 0.077	3.32 ± 0.053
KLCYVLGVEDITLIDSA [RET1]	1.58 ± 0.12	1.73 ± 0.25	1.26 ± 0.27	1.74 ± 0.07
QLASQLVDLKKELAELK [RPL35A]	3.37 ± 0.26	3.68 ± 0.27	3.21 ± 0.066	3.35 ± 0.078
EEDFYTVVGNASFGKNL [DSN1]	1.99 ± 0.12	1.38 ± 0.25	2.9 ± 0.23	3.12 ± 0.14
SVQDLGGSATARHKKKV [YML031W/NDC1]	2.7 ± 0.12	1.75 ± 0.069	1.57 ± 0.21	2.05 ± 0.057
VTKWTNQLTESASHFEQ [YJL041W/NSP1]	2.85 ± 0.13	3.19 ± 0.099	3.16 ± 0.091	2.83 ± 0.098
LMYSITFHHHGRQTVLI [SRB2]	3 ± 0.07	3.18 ± 0.071	3.18 ± 0.06	3.12 ± 0.039
DFVRNELNDIDTKIDQV [SMC3]	3.19 ± 0.15	3.31 ± 0.11	3.12 ± 0.14	3.29 ± 0.13
